Measured values as given in article PMC3226435, “Slice orientation and muscarinic acetylcholine receptor activation determine the involvement of N-methyl D-aspartate receptor subunit GluN2B in hippocampal area CA1 long-term depression” (Molecular Brain, 2011).

Molecular target: T1, N-methyl D-aspartate receptor subunit GluN2B (rat (endogenous in hippocampal slices), UniProt Q00960 27-1482)
T1 construct: NMDA receptor subunit GluN2B, endogenous in hippocampal slices of male Sprague-Dawley rats aged 14-21 days; Immunoprecipitated from the lysate with a rabbit polyclonal antibody against the GluN2B C-terminus; other NMDA receptor subunits may be present in the precipitate but were not examined; source: endogenous, lysate of rat hippocampal slices (RIPA buffer)
Test: co-IP; GluN2B immunoprecipitated with rabbit polyclonal anti-GluN2B C-terminal antibody on protein A beads from 500 ug RIPA lysate of rat hippocampal slices (sagittal control or 20 uM scopolamine for 2 hrs; untreated coronal or sagittal), overnight at 4°C, four washes in RIPA; Western blot for RasGRF1, RasGRF1 normalized to GluN2B
Details: partners not purified

T1 sequence (Q00960 27-1482): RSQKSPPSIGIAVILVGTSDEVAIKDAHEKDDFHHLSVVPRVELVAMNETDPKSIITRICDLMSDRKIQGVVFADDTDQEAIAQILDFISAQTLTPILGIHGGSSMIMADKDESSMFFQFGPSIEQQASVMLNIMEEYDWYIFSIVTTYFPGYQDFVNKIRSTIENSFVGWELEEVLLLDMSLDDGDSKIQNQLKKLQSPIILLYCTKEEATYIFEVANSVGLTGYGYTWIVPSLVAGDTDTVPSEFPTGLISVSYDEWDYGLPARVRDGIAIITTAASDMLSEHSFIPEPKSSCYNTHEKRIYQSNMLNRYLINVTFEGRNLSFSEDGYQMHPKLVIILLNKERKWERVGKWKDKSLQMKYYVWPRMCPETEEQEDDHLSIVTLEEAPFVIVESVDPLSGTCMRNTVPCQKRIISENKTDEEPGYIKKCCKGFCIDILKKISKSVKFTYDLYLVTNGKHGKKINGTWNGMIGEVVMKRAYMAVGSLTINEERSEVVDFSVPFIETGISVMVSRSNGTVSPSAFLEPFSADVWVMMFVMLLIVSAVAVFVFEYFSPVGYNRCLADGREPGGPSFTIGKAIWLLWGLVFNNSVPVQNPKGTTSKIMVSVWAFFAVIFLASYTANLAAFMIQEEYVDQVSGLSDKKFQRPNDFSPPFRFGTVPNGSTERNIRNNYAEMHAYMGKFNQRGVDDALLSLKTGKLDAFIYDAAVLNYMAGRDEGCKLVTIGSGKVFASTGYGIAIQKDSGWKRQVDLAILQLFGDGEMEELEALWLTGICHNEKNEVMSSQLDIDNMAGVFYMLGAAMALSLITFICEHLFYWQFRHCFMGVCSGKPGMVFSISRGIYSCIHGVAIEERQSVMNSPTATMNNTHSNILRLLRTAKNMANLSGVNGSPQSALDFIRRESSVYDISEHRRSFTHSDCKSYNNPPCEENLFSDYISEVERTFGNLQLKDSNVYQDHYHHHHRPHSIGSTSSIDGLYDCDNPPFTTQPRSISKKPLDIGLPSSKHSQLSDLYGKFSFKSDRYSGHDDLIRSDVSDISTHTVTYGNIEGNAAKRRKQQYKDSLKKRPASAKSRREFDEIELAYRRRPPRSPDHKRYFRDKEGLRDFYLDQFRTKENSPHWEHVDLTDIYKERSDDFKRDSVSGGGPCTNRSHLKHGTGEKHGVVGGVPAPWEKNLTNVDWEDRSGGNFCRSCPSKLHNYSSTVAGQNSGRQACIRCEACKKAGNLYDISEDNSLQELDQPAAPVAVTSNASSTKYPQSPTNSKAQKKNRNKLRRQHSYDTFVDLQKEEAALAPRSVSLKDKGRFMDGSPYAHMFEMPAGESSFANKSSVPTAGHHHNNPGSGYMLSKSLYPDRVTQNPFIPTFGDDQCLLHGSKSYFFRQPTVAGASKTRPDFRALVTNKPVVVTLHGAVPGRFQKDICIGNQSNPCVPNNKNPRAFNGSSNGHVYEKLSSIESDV

- ratio of normalized RasGRF1 in GluN2B immunoprecipitate, coronal/sagittal: 1.33 ± 0.105
- ratio of normalized RasGRF1 in GluN2B immunoprecipitate, scopolamine/control: 2.04 ± 0.451
B1: Ras Guanine nucleotide Release Factor 1 (natural protein, rat (endogenous in hippocampal slices), UniProt P28818 1-1244, looked up)
chain: MQKAIRLNDGHVVSLGLLAQRDGTRKGYLSKRSSDNPKWQTKWFALLQNLLFYFESDSSSRPSGLYLLEGSICKRMPSPKRGTSSKESDKQHHYFTVNFSNDSQKSLELRTDDSKDCDEWVAAIARASYKILATEHEALMQKYLHLLQVVETEKTVAKQLRQQLEDGEVEIERLKAEIANLIKDNERIQSNQLVAPEDEDSDIKKIKKVQSFLRGWLCRRKWKNIIQDYIRSPHADSMRKRNQVVFSMLEAEAEYVQQLHILVNNFLRPLRMAASSKKPPITHDDVSSIFLNSETIMFLHQIFYQGLKARIASWPTLVLADLFDILLPMLNIYQEFVRNHQYSLQILAHCKQNRDFDKLLKQYEAKPDCEERTLETFLTYPMFQIPRYILTLHELLAHTPHEHVERNSLDYAKSKLEELSRVMHDEVSETENIRKNLAIERMITEGCEILLDTSQTFVRQGSLIQVPMSEKGKINKGRLGSLSLKKEGERQCFLFSKHLIICTRGSGSKLHLTKNGVISLIDCTLLDDPENMDDDGKGQEVDHLDFKIWVEPKDSPPFTVILVASSRQEKAAWTSDIIQCVDNIRCNGLMMNAFEENSKVTVPQMIKSDASLYCDDVDIRFSKTMNSCKVLQIRYASVERLLERLTDLRFLSIDFLNTFLHSYRVFTDAVVVLDKLISIYKKPITAIPARSLELLFSSSHNTKLLYGDAPKSPRASRKFSSPPPLAIGTSSPVRRRKLSLNIPIITGGKALELASLGCPSDGYTNIHSPISPFGKTTLDTSKLCVASSLTRTPEEIDMTTLEESSGFRKPTSDILKEESDDDQSDVDDTEVSPPTPKSFRNRITQEFPLFNYNSGIMMTCRDLMDSNRSPLSATSAFAIATAGANESPANKEIYRRMSLANTGYSSDQRNIDKEFVIRRAATNRVLNVLRHWVTKHSQDFETDDLLKYKVICFLEEVMHDPDLLPQERKAAANIMRTLTQEEITENHSMLDELLLMTEGVKTEPFENHSAMEIAEQLTLLDHLVFKSIPYEEFFGQGWMKADKNERTPYIMKTTRHFNHISNLIASEILRNEEVSARASTIEKWVAVADICRCLHNYNAVLEITSSINRSAIFRLKKTWLKVSKQTKSLFDKLQKLVSSDGRFKNLRETLRNCDPPCVPYLGMYLTDLAFLEEGTPNYTEDGLVNFSKMRMISHIIREIRQFQQTTYKIEPQPKVTQYLVDETFVLDDESLYEASLRIEPKLPT
notes: RasGRF1, Ras-specific guanine nucleotide exchange factor, endogenous in hippocampal slices of male Sprague-Dawley rats aged 14-21 days; Detected in the GluN2B immunoprecipitate by Western blot with a rabbit polyclonal anti-RasGRF1 antibody; also called RasGRF1; source: endogenous, lysate of rat hippocampal slices (RIPA buffer)
